Test results as given in US20240116985A1, “STAPLED PEPTIDES AND METHODS THEREOF” (priority 2020, published 2024).
Starred links: 1 amine or outer side, 2 acyl side, 3 side chain; linkers in the order of their positions; H or OH if unused. Positions of bridges follow the written chain, without caps; N, C: chain ends. Non-standard residues stand in square brackets, D forms with d. Primed or numbered codes have the meaning given here. PyrS2″ = (S)-3-amino-1-((pent-4-en-1-yloxy)carbonyl)pyrrolidine-3-carboxylic acid (stapling residue), C=CCCCOC(=O)N1CC[C@@](N[*:1])(C(=O)[*:2])C1; B5(30) = 2-amino-2-(pent-4-en-1-yl)hept-6-enoic acid (2,2-bis(4-pentenyl)glycine, stitching residue), C=CCCCC(CCCC=C)(N[*:1])C(=O)[*:2]; B5(4) = 2,2-bis(4-pentenyl)glycine = 2-amino-2-(pent-4-en-1-yl)hept-6-enoic acid (stitching residue), C=CCCCC(CCCC=C)(N[*:1])C(=O)[*:2]; B5(5) = 2,2-bis(4-pentenyl)glycine, 2-amino-2-(pent-4-en-1-yl)hept-6-enoic acid (stitching residue), C=CCCCC(CCCC=C)(N[*:1])C(=O)[*:2]; B5(20) = 2-amino-2-(pent-4-en-1-yl)hept-6-enoic acid = bis(4-pentenyl)glycine, stitching residue, C=CCCCC(CCCC=C)(N[*:1])C(=O)[*:2]; (3C)TriAzdLys = (R)-2-amino-6-(4-propyl-1H-1,2,3-triazol-1-yl)hexanoic acid, CCCc1cn(CCCC[C@@H](N[*:1])C(=O)[*:2])nn1; Ala(1H-tetrazol-5-yl) = N[C@@H](Cc1nnn[nH]1)C(=O)O; Phe(3-COOH) = N[C@@H](Cc1cccc(C(=O)O)c1)C(=O)O; Phe(2-CF3) = N[C@@H](Cc1ccccc1C(F)(F)F)C(=O)O; Phe(4-NH2) = Nc1ccc(C[C@H](N)C(=O)O)cc1; Ala(2-furyl) = N[C@@H](Cc1ccco1)C(=O)O; Phe(3-Me) = Cc1cccc(C[C@H](N)C(=O)O)c1; Phe(4-Me) = Cc1ccc(C[C@H](N)C(=O)O)cc1; 2Nal = N[C@@H](Cc1ccc2ccccc2c1)C(=O)O; Phe(2-Me) = Cc1ccccc1C[C@H](N)C(=O)O; Bta = N[C@@H](Cc1csc2ccccc12)C(=O)O; Lys(iPr) = CC(C)NCCCC[C@H](N)C(=O)O; αAllylPro = C=CC[C@@]1(C(=O)O)CCCN1; hPhe = N[C@@H](CCc1ccccc1)C(=O)O; tBuAla = CC(C)(C)C[C@H](N)C(=O)O; 2Thi = N[C@@H](Cc1cccs1)C(=O)O; 3Thi = N[C@@H](Cc1ccsc1)C(=O)O; Cha = N[C@@H](CC1CCCCC1)C(=O)O; S8 = C=CCCCCCC[C@](C)(N)C(=O)O; hSer = N[C@@H](CCO)C(=O)O; Nva = CCC[C@H](N)C(=O)O

Columns and labels:
[1] = target: full-length beta-Catenin (Uniprot ID P35222) (Homo sapiens (Human)) (UniProt P35222); assay: fluorescence polarization competition: full-length beta-catenin + 5FAM-TCF4(10-53) probe, peptide titrated
Target sequence in this assay (P35222 whole entry): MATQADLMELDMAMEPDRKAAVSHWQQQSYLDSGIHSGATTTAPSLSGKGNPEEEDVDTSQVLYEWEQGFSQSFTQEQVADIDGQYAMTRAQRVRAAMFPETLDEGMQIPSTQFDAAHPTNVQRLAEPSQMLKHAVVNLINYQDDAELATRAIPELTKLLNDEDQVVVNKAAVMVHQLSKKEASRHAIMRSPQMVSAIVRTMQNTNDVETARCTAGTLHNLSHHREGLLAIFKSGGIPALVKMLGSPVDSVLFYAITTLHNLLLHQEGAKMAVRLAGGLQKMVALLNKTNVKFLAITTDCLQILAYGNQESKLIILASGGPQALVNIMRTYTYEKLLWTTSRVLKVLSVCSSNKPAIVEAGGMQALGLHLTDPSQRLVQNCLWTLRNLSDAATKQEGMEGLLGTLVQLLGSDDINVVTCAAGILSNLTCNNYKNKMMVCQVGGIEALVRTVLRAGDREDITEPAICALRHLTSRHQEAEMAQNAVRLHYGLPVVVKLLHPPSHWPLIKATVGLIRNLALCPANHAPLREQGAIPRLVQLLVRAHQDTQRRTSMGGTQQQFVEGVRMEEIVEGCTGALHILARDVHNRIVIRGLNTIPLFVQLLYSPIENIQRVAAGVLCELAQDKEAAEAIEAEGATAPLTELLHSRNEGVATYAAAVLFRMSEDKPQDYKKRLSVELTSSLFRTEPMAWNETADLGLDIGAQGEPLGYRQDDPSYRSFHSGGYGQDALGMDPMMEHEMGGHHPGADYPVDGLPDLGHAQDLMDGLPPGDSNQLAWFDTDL

[2] = target: full-length beta-Catenin (Uniprot ID P35222) (Homo sapiens (Human)) (UniProt P35222); assay: fluorescence polarization competition; full-length beta-catenin, competitor 5FAM-TCF4(10-53) probe
Target sequence in this assay (P35222 whole entry): as above

[3] = target: full-length beta-Catenin (Uniprot ID P35222) (Homo sapiens (Human)) (UniProt P35222); assay: fluorescence polarization competition; 10 nM full-length beta-catenin + 10 nM 5FAM-TCF4(10-53) probe, peptide titrated 10 uM to 5 nM
Target sequence in this assay (P35222 2-781 limits assumed): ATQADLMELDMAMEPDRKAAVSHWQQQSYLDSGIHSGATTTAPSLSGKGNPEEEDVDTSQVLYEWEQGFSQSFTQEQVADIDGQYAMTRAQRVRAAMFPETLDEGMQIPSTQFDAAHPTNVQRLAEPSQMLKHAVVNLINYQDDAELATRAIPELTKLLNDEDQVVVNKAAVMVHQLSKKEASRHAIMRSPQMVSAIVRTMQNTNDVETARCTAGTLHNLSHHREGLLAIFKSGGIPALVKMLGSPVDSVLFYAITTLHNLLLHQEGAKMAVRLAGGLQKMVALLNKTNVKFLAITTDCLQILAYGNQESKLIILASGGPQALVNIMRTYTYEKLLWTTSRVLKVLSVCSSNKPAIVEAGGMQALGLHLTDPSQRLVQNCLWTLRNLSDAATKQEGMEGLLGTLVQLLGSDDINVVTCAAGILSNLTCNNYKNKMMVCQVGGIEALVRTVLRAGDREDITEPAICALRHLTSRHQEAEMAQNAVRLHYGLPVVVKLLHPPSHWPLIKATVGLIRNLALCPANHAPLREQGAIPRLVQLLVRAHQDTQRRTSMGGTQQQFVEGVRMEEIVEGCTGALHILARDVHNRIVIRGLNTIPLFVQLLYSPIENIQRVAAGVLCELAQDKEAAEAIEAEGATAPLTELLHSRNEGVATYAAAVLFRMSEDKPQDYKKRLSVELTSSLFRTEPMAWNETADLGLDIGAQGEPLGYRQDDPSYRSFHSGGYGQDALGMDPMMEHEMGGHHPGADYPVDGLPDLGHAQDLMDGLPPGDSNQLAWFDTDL

[4] = target: full-length beta-Catenin (Uniprot ID P35222) (Homo sapiens (Human)) (UniProt P35222); assay: FP competition: full-length beta-catenin 10 nM + 5FAM-TCF4(10-53) 10 nM
Target sequence in this assay (P35222 whole entry): as the sequence (P35222 whole entry) above

Binder | EC50 [1] | IC50 [2] | IC50 [3] | IC50 [4]
Ac-[αAllylPro]DA[B5(4)]DEAAFN[S8][hPhe][Bta]Q-NH2 (staple 1-4, 4-11; also: staple isomer composition, later-eluting HPLC peak) [I-443] | 2130 nM | 2130 nM | – | –
Ac-[αAllylPro]DA[B5(4)]D[Ala(1H-tetrazol-5-yl)]AAFN[S8]F[Bta]Q-NH2 (staple 1-4, 4-11) [I-444] | 80 nM | 80 nM | – | –
Ac-[αAllylPro]N[Cha][B5(4)]DT[Lys(iPr)]AFL[PyrS2″]F[Bta]K-NH2 (staple 1-4, 4-11) [I-2450] | – | – | 63 nM | –
Ac-[αAllylPro]DA[B5(4)]DEAA[Ala(2-furyl)]N[S8]F[Bta]Q-NH2 (staple 1-4, 4-11) [I-460] | 196 nM | 196 nM | – | –
Ac-[αAllylPro]DA[B5(4)]DEAA[Phe(4-Me)]N[S8]F[Bta]Q-NH2 (staple 1-4, 4-11) [I-459] | 183 nM | 183 nM | – | –
Ac-[αAllylPro]D[tBuAla][B5(30)]D[Phe(3-COOH)]AAFL[PyrS2″][Phe(2-CF3)][Bta]S[(3C)TriAzdLys]-NH2 (staple 1-4, 4-11; not fully specified; printed as Ac-PL3-Asp-Npg-B5-Asp-3COOHF-Ala-Ala-Phe-Leu-PyrS2-2F3MeF-BztA-Ser-[3C]TriAzdLys-NH2) [I-2444] | – | – | 121 nM | –
Ac-[αAllylPro]DA[B5(4)]DEAA[3Thi]N[S8]F[Bta]Q-NH2 (staple 1-4, 4-11) [I-448] | 92 nM | 92 nM | – | –
Ac-[αAllylPro]DA[B5(4)]DEAA[Phe(3-Me)]N[S8]F[Bta]Q-NH2 (staple 1-4, 4-11) [I-458] | 102 nM | 102 nM | – | –
Ac-[αAllylPro]DA[B5(4)]DEAAFN[S8][hPhe][Bta]Q-NH2 (staple 1-4, 4-11; also: staple isomer composition, earlier-eluting HPLC peak) [I-442] | 4480 nM | 4480 nM | – | –
Ac-[αAllylPro]D[tBuAla][B5(4)]D[Phe(3-COOH)]QAFL[PyrS2″][Phe(2-CF3)][SbMeBztA]A-NH2 (staple 1-4, 4-11) [I-2457] | – | – | 52 nM | –
Ac-[αAllylPro]DA[B5(4)]DEAA[Phe(2-Me)]N[S8]F[Bta]Q-NH2 (staple 1-4, 4-11) [I-457] | 1440 nM | 1440 nM | – | –
Ac-[αAllylPro][hSer][tBuAla][B5(5)]DQAAFL[PyrS2″]F[Bta]Q-NH2 (staple 1-4, 4-11) [I-2443] | – | – | 6670 nM | –
Ac-[αAllylPro]DA[B5(20)]DEAAFN[S8][3Thi][Bta]Q-NH2 (staple 1-4, 4-11; also: later-eluting HPLC peak of staple isomers) [I-519] | – | – | – | 33 nM

The next lines start with the values.

EC50 [1] | IC50 [2] | IC50 [3] | IC50 [4] | Binder
125 nM | 125 nM | – | – | Ac-[αAllylPro]DA[B5(4)]DEAA[Phe(4-NH2)]N[S8]F[Bta]Q-NH2 (staple 1-4, 4-11) [I-461]
– | – | 282 nM | – | Ac-[αAllylPro]N[tBuAla][B5(5)]DHAAFL[PyrS2″]F[Bta]Q-NH2 (staple 1-4, 4-11) [I-2442]
2170 nM | 2170 nM | – | – | Ac-[αAllylPro]DA[B5(4)]DEAA[Phe(2-Me)]N[S8]F[Bta]Q-NH2 (staple 1-4, 4-11) [I-456]
4960 nM | 4960 nM | – | – | Ac-[αAllylPro]DA[B5(4)][Ala(1H-tetrazol-5-yl)]DAAFN[S8]F[Bta]Q-NH2 (staple 1-4, 4-11) [I-445]
– | – | 93 nM | – | Ac-[αAllylPro]N[Cha][B5(5)]DQ[Lys(iPr)]AFL[PyrS2″][3Thi][Bta]Q-NH2 (staple 1-4, 4-11; not fully specified; printed as Ac-PL3-Asn-Cha-B5-Asp-Gln-iPrLys-Ala-Phe-Leu-PyrS2-3Thi-BztA-Gln-NH2) [I-2446]
– | – | 10000 nM | – | Ac-[αAllylPro]N[Cha][B5(30)]DT[hSer]AFL[PyrS2″]F[Bta]K-NH2 (staple 1-4, 4-11; not fully specified; printed as Ac-PL3-Asn-Cha-B5-Asp-Thr-Hse-Ala-Phe-Leu-PyrS2-Phe-BztA-Lys-NH2; also: staple -CH=CH- reduced to -CH2-CH2-) [I-2454]
– | – | 3250 nM | – | Ac-[αAllylPro]N[Cha][B5(30)]DT[hSer]AFL[PyrS2″]F[Bta]Q-NH2 (staple 1-4, 4-11; not fully specified; printed as Ac-PL3-Asn-Cha-B5-Asp-Thr-Hse-Ala-Phe-Leu-PyrS2-Phe-BztA-Gln-NH2) [I-2447]
– | – | 4860 nM | – | Ac-[αAllylPro]N[Cha][B5(30)]DQ[hSer]AFL[PyrS2″][3Thi][Bta]Q-NH2 (staple 1-4, 4-11; not fully specified; printed as Ac-PL3-Asn-Cha-B5-Asp-Gln-Hse-Ala-Phe-Leu-PyrS2-3Thi-BztA-Gln-NH2; also: staple -CH=CH- reduced to -CH2-CH2-) [I-2451]
74 nM | 74 nM | – | – | Ac-[αAllylPro]DA[B5(4)]DEAA[2Thi]N[S8]F[Bta]Q-NH2 (staple 1-4, 4-11; also: staple isomer composition, later-eluting HPLC peak) [I-447]
– | – | – | 44 nM | Ac-[αAllylPro]D[Nva][B5(4)]DEAAFQ[S8]F[Bta]Q-NH2 (staple 1-4, 4-11; also: later eluting HPLC peak staple isomer) [I-523]
53 nM | 53 nM | – | – | Ac-[αAllylPro]DA[B5(4)]DEAA[3Thi]N[S8]F[Bta]Q-NH2 (staple 1-4, 4-11) [I-449]
– | – | – | 23 nM | Ac-[αAllylPro]DA[B5(20)]DEAAFN[S8][3Thi][Bta]H-NH2 (staple 1-4, 4-11; also: later-eluting HPLC peak of staple isomers) [I-516]
– | – | 56 nM | – | Ac-[αAllylPro]D[tBuAla][B5(4)]D[Phe(3-COOH)]QAFL[PyrS2″][Phe(2-CF3)][RbMeBztA]A-NH2 (staple 1-4, 4-11) [I-2459]
– | – | – | 23 nM | Ac-[αAllylPro]DI[B5(20)]DEAAFN[S8][3Thi][Bta]Q-NH2 (staple 1-4, 4-11; also: later-eluting HPLC peak of staple isomers) [I-521]
– | – | 75 nM | – | Ac-[αAllylPro]D[tBuAla][B5(4)]D[Phe(3-COOH)]QAFL[PyrS2″][Phe(2-CF3)][2Nal]A-NH2 (staple 1-4, 4-11) [I-2461]
130 nM | 130 nM | – | – | Ac-[αAllylPro]DA[B5(4)]DEAA[2Thi]N[S8]F[Bta]Q-NH2 (staple 1-4, 4-11; also: staple isomer composition, earlier-eluting HPLC peak) [I-446]
– | – | 10000 nM | – | Ac-[αAllylPro]N[Cha][B5(30)]DT[hSer]AFL[PyrS2″]F[Bta]K-NH2 (staple 1-4, 4-11) [I-2449]
– | – | 10000 nM | – | Ac-[αAllylPro]N[Cha][B5(30)]DT[Lys(iPr)]AFL[PyrS2″]F[Bta]K-NH2 (staple 1-4, 4-11; not fully specified; printed as Ac-PL3-Asn-Cha-B5-Asp-Thr-iPrLys-Ala-Phe-Leu-PyrS2-Phe-BztA-Lys-NH2; also: staple -CH=CH- reduced to -CH2-CH2-) [I-2455]
– | – | 7200 nM | – | Ac-[αAllylPro]N[Cha][B5(30)]DQ[Lys(iPr)]AFL[PyrS2″][3Thi][Bta]Q-NH2 (staple 1-4, 4-11; not fully specified; printed as Ac-PL3-Asn-Cha-B5-Asp-Gln-iPrLys-Ala-Phe-Leu-PyrS2-3Thi-BztA-Gln-NH2; also: staple -CH=CH- reduced to -CH2-CH2-) [I-2452]
